Source: patent US20020035240A1 (Amgen, published 2002)

Biological target: T1, rat p55CDC (rat, UniProt Q62623 1-499, phosphorylated in CHO cells (sites not given))
T1 construct: 499 amino acids; In the assays it came from cell lysates: CHO cells transfected with the 1.8 kb rat cDNA (PMTp55s), or the endogenous protein of Rat1 cells
Test: co-immunoprecipitation with p55CDC antibody from 35S-labelled CHO cell lysates, SDS-PAGE
Protocol: Autoradiography was performed for 1 week.
In vitro translation was performed using a nuclease treated rabbit reticulocyte lysate (Promega, Madison, WI) and [³H]-leucine (Amersham TRK683). The mRNA template was produced by using the Stratagene in vitro transcription kit and the p55CDC cDNA subcloned into the Bluescript vector as substrate. Cell lysates were prepared as described (59) after rinsing the plates twice with PBS. Cells were lysed in modified radioimmunoprecipitation assay (RIPA) buffer with additional […] (150 mM NaCl, 1.0% NP-40, 1.0% sodium deoxycholate, 0.1% SDS, 2 mM EDTA, 6 mM Na₂HPO₄, 4 mM NaH₂PO4 50 mM NaF, 200 μM Na₃VO₄, 20 μg/ml aprotinin, 1 μg/ml leupeptin, 10 μg/ml soybean trypsin inhibitor and 50 μg/ml phenylmethyl sulfonyl fluoride). All protease inhibitors were purchased from Sigma. Protein concentrations were estimated using the Bicinchoninic acid reagent (Pierce). For 250 μg lysate in a final volume of 700 μl RIPA buffer, we used 7 μl of affinity purified p55CDC antibodies (140 μg protein/ml) or 12 μl of p55CDC competed antiserum (700 μg protein/ml) which gave an equivalent level of immunoglobulin for both preparations. Immunoprecipitation of p34^cdc2 complexes was done using 10 μl of the p34^cdc2 mouse monoclonal antibody 17 (Santa Cruz Biotechnology, Santa Cruz, Calif.). […]

T1 sequence (Q62623 whole entry D77E): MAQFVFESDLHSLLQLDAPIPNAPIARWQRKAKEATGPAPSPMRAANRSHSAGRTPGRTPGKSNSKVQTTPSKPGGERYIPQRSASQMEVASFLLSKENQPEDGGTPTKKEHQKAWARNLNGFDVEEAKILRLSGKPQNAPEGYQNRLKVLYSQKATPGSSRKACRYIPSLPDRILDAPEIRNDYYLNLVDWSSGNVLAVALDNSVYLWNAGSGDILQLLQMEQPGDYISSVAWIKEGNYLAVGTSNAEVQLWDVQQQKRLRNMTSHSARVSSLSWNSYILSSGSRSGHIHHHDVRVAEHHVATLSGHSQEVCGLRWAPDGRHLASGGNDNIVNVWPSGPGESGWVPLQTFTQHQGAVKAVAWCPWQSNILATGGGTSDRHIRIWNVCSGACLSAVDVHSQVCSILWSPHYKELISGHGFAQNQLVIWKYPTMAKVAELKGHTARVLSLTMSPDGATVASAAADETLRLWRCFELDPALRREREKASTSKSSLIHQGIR

- binding result: no binding
B1: p34cdc2 (CHO cells) (enzyme)
chain: not shown
